The values that follow come from patent US20080014191A1.

For test [1], the target named is ΔF508 CFTR (Homo sapiens (Human)) (UniProt P13569). The test is described as follows: CFTR co-IP and Hsp90 immunoblot; HEK293 ΔF508 cells, ~60% knock-down of Aha1. Background: In western blotting, separated proteins are transferred to a membrane and probed.
Test [2] concerns the target wild-type cystic fibrosis transmembrane conductance regulator (CFTR) (Homo sapiens (Human)) (UniProt P13569). The test is described as follows: CFTR co-IP, MudPIT MS; BHK cells.
For test [3] the target is unchanged. The test can be described thus: CFTR co-IP, MudPIT MS; HT29 cells.
Test [4] shares this target. The test is described as follows: CFTR co-IP, MudPIT MS; Calu-3 cells.
Test [5] has the same target. The test is described as follows: CFTR co-IP, MudPIT MS; BHK wt, Calu-3, HT29, T84.
Test [6] deals with ΔF508 CFTR (Homo sapiens (Human)) (UniProt P13569). The test can be described thus: CFTR co-IP, MudPIT MS; ΔF508.

Sequence of ΔF508 CFTR (Homo sapiens (Human)) (P13569 other isoform, or with tags, fused parts or gaps mutant limits assumed): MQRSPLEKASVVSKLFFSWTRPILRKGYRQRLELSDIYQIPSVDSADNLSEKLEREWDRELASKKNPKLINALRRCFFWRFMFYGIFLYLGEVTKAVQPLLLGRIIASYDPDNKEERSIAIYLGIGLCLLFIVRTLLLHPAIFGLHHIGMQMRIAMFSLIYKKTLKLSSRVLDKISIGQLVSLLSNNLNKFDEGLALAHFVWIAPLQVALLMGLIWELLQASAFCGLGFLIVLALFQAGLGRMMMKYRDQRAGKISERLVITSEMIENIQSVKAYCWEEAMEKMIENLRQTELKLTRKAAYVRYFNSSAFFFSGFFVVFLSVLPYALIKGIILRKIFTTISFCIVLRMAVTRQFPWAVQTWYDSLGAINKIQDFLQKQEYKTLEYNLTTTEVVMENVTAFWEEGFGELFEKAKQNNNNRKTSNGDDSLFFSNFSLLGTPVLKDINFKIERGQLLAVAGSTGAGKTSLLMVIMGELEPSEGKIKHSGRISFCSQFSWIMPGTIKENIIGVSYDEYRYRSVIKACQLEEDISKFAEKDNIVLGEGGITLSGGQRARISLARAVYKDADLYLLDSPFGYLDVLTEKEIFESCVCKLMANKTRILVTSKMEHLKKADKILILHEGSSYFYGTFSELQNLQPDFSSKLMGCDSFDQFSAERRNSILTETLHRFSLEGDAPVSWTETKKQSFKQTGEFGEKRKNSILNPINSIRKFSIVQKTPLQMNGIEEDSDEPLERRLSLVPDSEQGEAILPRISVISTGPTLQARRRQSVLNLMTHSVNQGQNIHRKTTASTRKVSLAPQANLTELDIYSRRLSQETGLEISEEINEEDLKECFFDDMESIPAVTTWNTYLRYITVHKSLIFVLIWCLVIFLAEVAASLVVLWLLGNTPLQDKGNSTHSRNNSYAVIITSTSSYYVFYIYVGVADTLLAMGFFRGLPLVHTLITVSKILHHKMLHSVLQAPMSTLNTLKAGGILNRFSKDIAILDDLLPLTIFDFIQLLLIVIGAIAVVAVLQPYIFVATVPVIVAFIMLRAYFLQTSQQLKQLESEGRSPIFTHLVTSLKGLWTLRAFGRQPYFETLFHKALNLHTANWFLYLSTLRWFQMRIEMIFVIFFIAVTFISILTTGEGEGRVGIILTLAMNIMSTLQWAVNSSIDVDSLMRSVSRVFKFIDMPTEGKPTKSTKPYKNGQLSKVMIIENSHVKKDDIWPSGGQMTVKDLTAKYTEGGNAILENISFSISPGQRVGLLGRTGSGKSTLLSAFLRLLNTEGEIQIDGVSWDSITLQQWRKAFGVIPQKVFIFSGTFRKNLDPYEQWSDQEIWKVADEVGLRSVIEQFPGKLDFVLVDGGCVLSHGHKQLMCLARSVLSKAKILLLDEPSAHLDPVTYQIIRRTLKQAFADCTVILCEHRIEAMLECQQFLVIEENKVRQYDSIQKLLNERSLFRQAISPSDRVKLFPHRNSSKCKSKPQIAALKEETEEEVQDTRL
Sequence of wild-type cystic fibrosis transmembrane conductance regulator (CFTR) (Homo sapiens (Human)) (P13569 whole entry): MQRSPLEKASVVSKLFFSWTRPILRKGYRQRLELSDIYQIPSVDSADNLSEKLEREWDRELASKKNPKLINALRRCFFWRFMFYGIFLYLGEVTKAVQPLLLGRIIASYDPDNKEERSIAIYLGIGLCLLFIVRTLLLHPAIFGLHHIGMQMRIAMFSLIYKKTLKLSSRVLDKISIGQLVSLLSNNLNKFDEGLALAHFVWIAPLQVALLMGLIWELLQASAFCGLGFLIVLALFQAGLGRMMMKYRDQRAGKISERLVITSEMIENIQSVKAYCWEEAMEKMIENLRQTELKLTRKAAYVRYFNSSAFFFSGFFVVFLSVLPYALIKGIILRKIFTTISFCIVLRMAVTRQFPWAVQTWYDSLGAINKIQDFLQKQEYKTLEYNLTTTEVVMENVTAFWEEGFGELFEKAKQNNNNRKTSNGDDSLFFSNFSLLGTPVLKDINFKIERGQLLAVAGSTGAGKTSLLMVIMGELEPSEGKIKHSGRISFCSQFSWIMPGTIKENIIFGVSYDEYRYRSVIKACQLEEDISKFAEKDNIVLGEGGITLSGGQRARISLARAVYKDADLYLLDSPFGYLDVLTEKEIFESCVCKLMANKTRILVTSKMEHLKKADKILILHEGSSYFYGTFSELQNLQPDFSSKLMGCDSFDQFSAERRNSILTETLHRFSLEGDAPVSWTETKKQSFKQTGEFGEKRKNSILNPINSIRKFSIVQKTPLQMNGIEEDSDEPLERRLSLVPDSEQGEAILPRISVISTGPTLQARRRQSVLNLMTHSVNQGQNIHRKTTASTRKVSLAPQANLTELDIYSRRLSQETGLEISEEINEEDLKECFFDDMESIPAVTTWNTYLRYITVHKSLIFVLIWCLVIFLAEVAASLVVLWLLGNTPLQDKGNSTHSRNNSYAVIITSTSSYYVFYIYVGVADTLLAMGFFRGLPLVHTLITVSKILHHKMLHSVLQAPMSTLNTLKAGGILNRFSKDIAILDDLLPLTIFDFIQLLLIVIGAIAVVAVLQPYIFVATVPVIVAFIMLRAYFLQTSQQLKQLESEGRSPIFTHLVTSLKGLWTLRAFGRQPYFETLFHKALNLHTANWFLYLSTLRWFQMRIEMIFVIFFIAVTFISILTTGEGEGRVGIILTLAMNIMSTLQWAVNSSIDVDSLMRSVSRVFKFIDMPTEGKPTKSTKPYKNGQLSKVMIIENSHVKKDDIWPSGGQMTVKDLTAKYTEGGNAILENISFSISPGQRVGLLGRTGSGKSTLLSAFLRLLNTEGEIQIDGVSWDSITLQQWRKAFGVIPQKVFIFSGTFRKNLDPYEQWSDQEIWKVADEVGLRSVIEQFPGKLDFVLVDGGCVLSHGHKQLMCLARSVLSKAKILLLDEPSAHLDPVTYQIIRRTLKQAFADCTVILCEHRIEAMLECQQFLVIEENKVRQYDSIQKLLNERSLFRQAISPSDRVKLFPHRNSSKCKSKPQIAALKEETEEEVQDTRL

As for Hsp90, the decrease of bound Hsp90 (ratio of Hsp90 to CFTR in the immunoprecipitate) after Aha1 dsRNA against scrambled control in test [1] was 50 to 60%.

For NHERF-1 (from UniProt O14745 2-358), in test [2], the % sequence coverage was 20%, the total peptide spectra is 6 spectra and the unique peptide spectra worked out at 5 spectra. For the same substance, in test [3], the % sequence coverage came out at 11%, the total peptide spectra is 2 spectra and the unique peptide spectra was 2 spectra.

In test [3], NHERF-2 (from UniProt Q15599 1-337) gave a % sequence coverage of 20%, a total peptide spectra of 10 spectra and a unique peptide spectra of 7 spectra. In addition, in test [4], the % sequence coverage was determined as 14%, the total peptide spectra turned out to be 5 spectra and the unique peptide spectra was 4 spectra.

For the substance “Sec61 alpha subunit isoform 1 (from UniProt P61619 1-476)”, in test [5], the % sequence coverage came out at 11%, the total peptide spectra turned out to be 7 spectra and the unique peptide spectra turned out to be 4 spectra.

Regarding “Sec61, alpha subunit 2 (from UniProt Q9H9S3 1-476)”, in test [5], the % sequence coverage amounted to 11%, the total peptide spectra amounted to 2 spectra and the unique peptide spectra worked out at 2 spectra.

In test [5], “THR interactor 12 (from UniProt Q14669 2-1992)” came in with a % sequence coverage of 2%, a total peptide spectra of 2 spectra and a unique peptide spectra of 2 spectra.

Take “VCP/p97/Cdc48 (from UniProt P55072 2-806)”: in test [6], the % sequence coverage was 25%, the total peptide spectra worked out at 14 spectra and the unique peptide spectra amounted to 10 spectra. In test [5], this substance had a % sequence coverage of 7%, a total peptide spectra of 2 spectra and a unique peptide spectra of 2 spectra.

In test [6], “proteasome 26S, non-ATPase, 2 (from UniProt Q13200 1-908)” registered a % sequence coverage of 13%, a total peptide spectra of 8 spectra and a unique peptide spectra of 7 spectra. Further, in test [5], the % sequence coverage was found to be 4%, the total peptide spectra was determined as 2 spectra and the unique peptide spectra was 2 spectra.

“proteasome, beta type 1 (from UniProt O09061 28-240)”: in test [6], the % sequence coverage turned out to be 23%, the total peptide spectra is 3 spectra and the unique peptide spectra worked out at 3 spectra.

On to “proteasome, beta type, 3 (from UniProt P49720 2-205)”, for which, in test [6], the % sequence coverage worked out at 24%, the total peptide spectra came out at 3 spectra and the unique peptide spectra amounted to 3 spectra.

“proteasome, beta type, 4 (from UniProt P28070 46-264)”: in test [6], the % sequence coverage amounted to 16%, the total peptide spectra came to 2 spectra and the unique peptide spectra was 2 spectra.

For the substance “ubiquitin protein ligase E3A (from UniProt Q05086 1-875) (enzyme)”, in test [5], the % sequence coverage is 6%, the total peptide spectra turned out to be 2 spectra and the unique peptide spectra amounted to 2 spectra.

In test [5], “ubiquitin specific protease 9 (from UniProt Q93008 1-2554) (enzyme)” displayed a % sequence coverage of 1%, a total peptide spectra of 3 spectra and a unique peptide spectra of 2 spectra.
